Assay [1] addresses Ac-Ala-Arg-Leu-Arg-ACC.
The target in assay [2] is Ac-Ala-Arg-Leu-P1-ACC, P1 = Gly (G).
For assay [3], the target named is Ac-Ala-Arg-Leu-P1-ACC, P1 = L-Ala (A).
The target in assay [4] is Ac-Ala-Arg-Leu-P1-ACC, P1 = L-Asn (N).
The target in assay [5] is Ac-Ala-Arg-Leu-P1-ACC, P1 = L-Asp (D).
Assay [6] addresses Ac-Ala-Arg-Leu-P1-ACC, P1 = L-Gln (Q).
Assay [7] addresses Ac-Ala-Arg-Leu-P1-ACC, P1 = L-Glu (E).
Assay [8] has as its target Ac-Ala-Arg-Leu-P1-ACC, P1 = L-His (H).
The target of assay [9] is Ac-Ala-Arg-Leu-P1-ACC, P1 = L-Ile (I).
Assay [10] addresses Ac-Ala-Arg-Leu-P1-ACC, P1 = L-Leu (L).
The target in assay [11] is Ac-Ala-Arg-Leu-P1-ACC, P1 = L-Lys (K).
Assay [12] deals with Ac-Ala-Arg-Leu-P1-ACC, P1 = L-Met (M).
Assay [13] deals with Ac-Ala-Arg-Leu-P1-ACC, P1 = L-Phe (F).
Assay [14] has as its target Ac-Ala-Arg-Leu-P1-ACC, P1 = L-Pro (P).
The target of assay [15] is Ac-Ala-Arg-Leu-P1-ACC, P1 = L-Ser (S).
In assay [16] the target is Ac-Ala-Arg-Leu-P1-ACC, P1 = L-Thr (T).
The target in assay [17] is Ac-Ala-Arg-Leu-P1-ACC, P1 = L-Trp (W).
Assay [18] deals with Ac-Ala-Arg-Leu-P1-ACC, P1 = L-Tyr (Y).
In assay [19] the target is Ac-Ala-Arg-Leu-P1-ACC, P1 = L-Val (V).
The target in assay [20] is T1, Boc-QAR-AMC.
T1 sequence (peptide, N-terminal Boc; C-terminal AMC): QAR

Assay [21] addresses Ac-Agp-hArg-Leu-Arg-ACC.
Assay [22] has as its target Ac-Ala-Arg-Leu-Arg-ACC. This is another data set of the same source.
The target of assay [23] is Ac-His(3Bom)-Agp-hLeu-Arg-ACC.
In assay [24] the target is NH2-Leu-DTrp-Nle-Arg-ACC.
In assay [25] the target is Boc-QLR-AMC.
Assay [26] deals with Hepatocyte Growth Factor Activator (HGFA) serine protease domain, N-terminal His-tag, recombinant (Homo sapiens (Human)) (UniProt Q04756). Description: fluorogenic inhibition assay.
Assay [27] deals with Factor Xa. Description: selectivity inhibition assay.
In assay [28] the target is Trypsin. Description: selectivity inhibition assay.
The target of assay [29] is recombinant thrombin. Kind of assay: selectivity inhibition assay.
Assay [30] addresses Hepatocyte Growth Factor Activator (HGFA) serine protease domain, N-terminal His-tag, recombinant (Homo sapiens (Human)) (UniProt Q04756). Kind of assay: fluorogenic inhibition assay. The source holds these as a separate data set.
The target in assay [31] is T2, matriptase (Charles Craik, UCSF), recombinant (Homo sapiens (Human), UniProt Q9Y5Y6).
T2 sequence: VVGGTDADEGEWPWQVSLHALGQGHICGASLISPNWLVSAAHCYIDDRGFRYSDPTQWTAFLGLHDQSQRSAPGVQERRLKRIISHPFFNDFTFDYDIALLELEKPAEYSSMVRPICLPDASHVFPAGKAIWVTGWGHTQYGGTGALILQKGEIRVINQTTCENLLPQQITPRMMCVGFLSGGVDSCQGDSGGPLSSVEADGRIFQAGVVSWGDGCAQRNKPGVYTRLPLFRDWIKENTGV
Kind of assay: fluorogenic inhibition assay. The protocol:
(§1) Inhibitors (11-pt serial dilutions, 0-20 μM final concentration in reaction) were serially diluted in DMSO (2% DMSO final concentration) and then mixed with either recombinant serine protease domain of HGFA [Z. Han, P. K. Harris, D. E. Jones, R. Chugani, T. Kim, M. Agarwal, W. Shen, S. A. Wildman, J. W. Janetka, Acs Med Chem Lett 2014, 5, 1219-1224], matriptase (Charles Craik, UCSF) or hepsin* (#4776-SE-010, R&D Systems, Minneapolis, Minn.) in black 384 well plates (Corning #3575. Corning, N.Y.). […] The final substrate concentrations for all assays were at the Kₘ for the respective enzymes. Changes in fluorescence (excitation at 380 nm and emission at 460 nm) were measured at room temperature over time in a Biotek Synergy 2 plate reader (Winnoski, Vt.). Using GraphPad Prism version 6.04 software program, (GraphPad Software, San Diego, Calif., www.graphpad.com), a four parameter curve fit was used to determine the inhibitor IC₅₀s from a plot of the mean reaction velocity versus the inhibitor concentration. The IC₅₀ values represent the average of three separate experimental determinations.
(§2) Fluorescent inhibitor and chromogenic proteolytic assays were performed in general accordance with the procedures described in Example 4 for compounds prepared in Examples 5 and 6.

Assay [32] addresses T3, Recombinant human hepsin (4776-SE-010, R&D Systems), activated (human, UniProt P05981). Kind of assay: fluorogenic inhibition assay. How it is done: as §1, §2
The target of assay [33] is Hepatocyte Growth Factor Activator (HGFA) serine protease domain, N-terminal His-tag, recombinant (Homo sapiens (Human)) (UniProt Q04756).
Assay [34] concerns the target Recombinant human hepsin (4776-SE-010, R&D Systems), activated (human) (UniProt P05981).
Assay [35] deals with T4, matriptase (Charles Craik, UCSF), recombinant (Homo sapiens (Human)) (UniProt Q9Y5Y6).
T4 sequence: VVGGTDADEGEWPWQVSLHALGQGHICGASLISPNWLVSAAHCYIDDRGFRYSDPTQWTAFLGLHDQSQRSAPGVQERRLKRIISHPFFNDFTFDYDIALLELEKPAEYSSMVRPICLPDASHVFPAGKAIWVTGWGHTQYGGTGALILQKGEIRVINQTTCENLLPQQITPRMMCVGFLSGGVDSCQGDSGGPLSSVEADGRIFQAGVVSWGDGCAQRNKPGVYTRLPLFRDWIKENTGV

Assay [36] addresses Hepatocyte Growth Factor Activator (HGFA) serine protease domain, N-terminal His-tag, recombinant (Homo sapiens (Human)) (UniProt Q04756). This is another data set of the same source.
Assay [37] addresses T2, matriptase (Charles Craik, UCSF), …. Kind of assay: fluorogenic inhibition assay. How it is done: as §1
The source holds these as a separate data set.

For assay [38], the target named is T3, Recombinant human hepsin (4776-SE-010, …). Description: fluorogenic inhibition assay. The protocol:
as §1
This is another data set of the same source.

Assay [39] addresses T2, matriptase (Charles Craik, UCSF), …. Kind of assay: fluorogenic inhibition assay. This is another data set of the same source.
Assay [40] concerns the target T3, Recombinant human hepsin (4776-SE-010, …). Kind of assay: fluorogenic inhibition assay. This is another data set of the same source.
Assay [41] has as its target Factor Xa. Kind of assay: chromogenic inhibition assay.
Assay [42] deals with recombinant thrombin. Description: chromogenic inhibition assay.
In assay [43] the target is Hepatocyte Growth Factor Activator (HGFA) serine protease domain, N-terminal His-tag, recombinant (Homo sapiens (Human)) (UniProt Q04756). Description: fluorogenic inhibition assay. This is another data set of the same source.

Here are results for eight molecules from patent publication US20180066015A1, “INHIBITORS OF GROWTH FACTOR ACTIVATION ENZYMES” (Washington University, published 2018).

Where two headings read alike, the source gives them in different places. Starred links: 1 amine or outer side, 2 acyl side, 3 side chain; linkers in the order of their positions; H or OH if unused. Primed or numbered codes have the meaning given here. *: point of attachment. Kbt‑6‑CONH = ketobenzothiazole-6-CONH (amide link to Val), O=C(c1ccc2nc([*:1])sc2c1)[*:2]; Kbt = ketobenzothiazole, c1ccc2sc(*)nc2c1; kt = C-terminal ketothiazole, c1csc(*)n1; kt″ = ketothiazole, c1csc(*)n1

On to “Recombinant human hepsin (4776-SE-010, R&D Systems), activated (from UniProt P05981) (enzyme)”, for which the % activity, P1 position in assay [1] was found to be 100%; in [2], 0.07%; in assay [3], 0.49%; in assay [4] it was 0%; in assay [5], 0%; in [6] it was 0%. Besides, the % activity, P1 position was found to be 0.13% in assay [7]; 0.17% in assay [8]; 0.08% in assay [9]; 0.03% in assay [10]; 2.34% in assay [11]; 0% in [12]. In addition, the % activity, P1 position in [13] was 0.12%; in assay [14], 0.04%; in assay [15], 0.2%; in [16] it was 0.45%; in assay [17], 0.7%; in [18], 0.3%. The same molecule came in with a % activity, P1 position in assay [19] of 0%. The Km of fluorogenic substrate in [20] came out at 156 µM.

With “Hepatocyte Growth Factor Activator (HGFA) serine protease domain, N-terminal His-tag, recombinant (from UniProt Q04756) (enzyme)”, the % activity, P1 position was found to be 100% in assay [1]; 0% in assay [2]; 0% in [3]; 0% in [4]; 0% in assay [5]; 0% in assay [6]. Further, the % activity, P1 position in assay [7] was found to be 0%; in assay [8], 0%; in assay [9], 0%; in assay [10], 0%; in [11] it was 0.99%; in assay [12] it was 0%. The % activity, P1 position in [13] was found to be 0%; in assay [14] it was 0%; in [15], 0%; in assay [16], 0%; in assay [17], 0.73%; in assay [18], 0%. In [19], this molecule returned a % activity, P1 position of 0%. Moreover, the kcat/KM in assay [21] was 41300; in [22], 3140; in assay [23], 28100; in assay [24], 17700. In [25], the Km of fluorogenic substrate came to 37 µM.

B1: Ac-KQLR(SEQ ID NO: 1)-Kbt (peptide)
peptide: Ac-KQLR-Kbt
SMILES: CC(=O)N[C@@H](CCCCN)C(=O)N[C@@H](CCC(N)=O)C(=O)N[C@@H](CC(C)C)C(=O)N[C@@H](CCCNC(=N)N)C(=O)c1nc2ccccc2s1
As usually defined, the Ki is the dissociation constant of the complex between target and ligand, obtained from inhibition or displacement. Take B1: the inhibitory constant (Ki) was 30 nM in [26]; 129 nM in assay [27]; 0.24 nM in assay [28]; greater than 20000 nM in [29]; 0.55 nM in assay [31]; 0.09 nM in [32]. Further, in [30], the fold change of potency against thiazole 5 was determined as 2 fold.

B2: Ac-KRLR(SEQ ID NO: 8)-kt (peptide)
peptide: Ac-KRLR-kt
SMILES: CC(=O)N[C@@H](CCCCN)C(=O)N[C@@H](CCCNC(=N)N)C(=O)N[C@@H](CC(C)C)C(=O)N[C@@H](CCCNC(=N)N)C(=O)c1nccs1
For B2, the IC50 of enzyme inhibition in assay [33] is 225 nM; in assay [34], 5 nM; in assay [35], 14 nM. Also, the EC50 of inhibition of c-MET phosphorylation (Y1234/1235) in MDA-MB-231 cells treated with pro-HGF/HGFA reactions in [36] was determined as 180 nM. The inhibition constant (Ki) was found to be 12 nM in [26], 1.1 nM in assay [37] and 0.57 nM in [38].

With Ac-KQLR-{Kbt‑6‑CONH-Val-NH2} [Ac-KQLR(SEQ ID NO: 1)-Kbt-Val-NH2], the Ki stood at 12 nM in [26]; 66 nM in assay [27]; 0.07 nM in assay [28]; 3210 nM in assay [29]; 13 nM in assay [30]; 6.98 nM in assay [31]. Further, the inhibition constant Ki in assay [32] was 0.29 nM. Besides, the fold change of potency against Ac-KQLR-kbt (7) in assay [30] came to 2 fold. Besides, the results for the “fold decrease of activity against Ac-KQLR-kbt (7)” value in assay [39] and in assay [40] were greater than 10 fold and greater than 3 fold, respectively.

B3: matriptase (Charles Craik, UCSF), recombinant (enzyme)
chain: VVGGTDADEGEWPWQVSLHALGQGHICGASLISPNWLVSAAHCYIDDRGFRYSDPTQWTAFLGLHDQSQRSAPGVQERRLKRIISHPFFNDFTFDYDIALLELEKPAEYSSMVRPICLPDASHVFPAGKAIWVTGWGHTQYGGTGALILQKGEIRVINQTTCENLLPQQITPRMMCVGFLSGGVDSCQGDSGGPLSSVEADGRIFQAGVVSWGDGCAQRNKPGVYTRLPLFRDWIKENTGV
Consider B3, for which, in [20], the Km of fluorogenic substrate stood at 93 µM.

B4: Ac-SWLR(SEQ ID NO: 17)-kt (peptide)
peptide: Ac-SWLR-kt
SMILES: CC(=O)N[C@@H](CO)C(=O)N[C@@H](Cc1c[nH]c2ccccc12)C(=O)N[C@@H](CC(C)C)C(=O)N[C@@H](CCCNC(=N)N)C(=O)c1nccs1
With B4, the figures for the IC50 of enzyme inhibition in [33], in assay [34] and in assay [35] were 435 nM, 9 nM and 175 nM, respectively. Moreover, the Ki worked out at 759 nM in assay [41]; 3700 nM in assay [42]; 63 nM in assay [26]; 66 nM in [43]; 66 nM in assay [39]; 69 nM in assay [37]. Besides, the Ki in assay [38] was determined as 1.2 nM.

B5: Ac-KQLR(SEQ ID NO: 1)-kt (peptide)
peptide: Ac-KQLR-{kt″}
SMILES: CC(=O)N[C@@H](CCCCN)C(=O)N[C@@H](CCC(N)=O)C(=O)N[C@@H](CC(C)C)C(=O)N[C@@H](CCCNC(=N)N)C(=O)c1nccs1
On to B5, for which the results for the IC50 of enzyme inhibition in [33], in assay [34] and in [35] were 445 nM, 2 nM and 5 nM, respectively. The Ki is 170 nM in assay [41]; greater than 20000 nM in assay [42]; 70 nM in [26]; 53 nM in assay [43]; 1.6 nM in [37]; 0.19 nM in assay [38].
